{"source": "patent US20210122814A1", "about": "(SCHOLAR ROCK, published 2021)", "key": {"[1]": {"target": "T1, recombinant human GARP-proTGFβ1 complex (human, UniProt P01137 30-390; Q14392 20-627)", "T1 construct": "also called hGARP-proTGFβ1; hGARP", "T1 sequence (P01137 30-390, chain 1 of 2)": "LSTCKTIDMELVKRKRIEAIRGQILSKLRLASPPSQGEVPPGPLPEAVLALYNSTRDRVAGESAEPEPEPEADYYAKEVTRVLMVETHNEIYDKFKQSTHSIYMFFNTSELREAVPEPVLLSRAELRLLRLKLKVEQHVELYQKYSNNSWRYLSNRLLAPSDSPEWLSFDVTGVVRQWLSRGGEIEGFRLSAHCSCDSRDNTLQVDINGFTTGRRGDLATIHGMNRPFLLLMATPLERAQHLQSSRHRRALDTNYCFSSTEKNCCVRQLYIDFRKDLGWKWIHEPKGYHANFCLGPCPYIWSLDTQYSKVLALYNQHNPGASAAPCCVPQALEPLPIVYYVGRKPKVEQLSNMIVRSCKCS", "T1 sequence (Q14392 20-627, chain 2 of 2)": "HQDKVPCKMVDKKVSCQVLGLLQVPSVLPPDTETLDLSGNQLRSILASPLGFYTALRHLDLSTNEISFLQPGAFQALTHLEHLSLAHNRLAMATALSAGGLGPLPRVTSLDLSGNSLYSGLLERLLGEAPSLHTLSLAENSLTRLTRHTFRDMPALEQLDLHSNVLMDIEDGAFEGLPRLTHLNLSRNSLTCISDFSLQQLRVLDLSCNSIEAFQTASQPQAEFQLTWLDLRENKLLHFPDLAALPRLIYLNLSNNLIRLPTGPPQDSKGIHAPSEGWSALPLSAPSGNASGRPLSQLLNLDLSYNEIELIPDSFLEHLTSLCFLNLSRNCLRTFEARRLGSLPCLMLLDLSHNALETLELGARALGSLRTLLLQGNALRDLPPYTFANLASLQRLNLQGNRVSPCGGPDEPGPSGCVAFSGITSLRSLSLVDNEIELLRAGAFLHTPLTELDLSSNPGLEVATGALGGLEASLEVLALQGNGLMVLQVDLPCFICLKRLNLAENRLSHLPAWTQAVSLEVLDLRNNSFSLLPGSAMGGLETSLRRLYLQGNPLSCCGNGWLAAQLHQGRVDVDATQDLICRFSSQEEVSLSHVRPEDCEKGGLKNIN", "experiment": "MSD-SET (solution equilibrium titration), % free antigen against Ab6 concentration", "procedure": "(§1) MSD-SET assays were performed to measure affinities of the antibodies at equilibrium. Briefly, each test antibody was diluted 3-5 fold and samples were mixed with biotinylated antigen in a 48-well dish. The SET samples were equilibrated for 20-24 hours at room temperature. Meanwhile, a capture plate was coated with IgG (20 nM) and incubated overnight at 4° C. or 30 minutes at room temperature, followed by a blocking step with 5% BSA. After the capture plate was washed three times, SET samples were added and incubated for 150 seconds. The plate was washed once to remove unbound complexes. 250 ng/ml SA-Sulfotag was added then washed 3 times. 2× Read Buffer was added, and signals from the labeled bound complexes were read with the use of QuickPlex™ SQ 120 instrument.\n(§2) As an example, MSD standard plates (MSD) were coated with a 20 nM solution of monoclonal antibody in PBS for 30 min at room temperature or overnight at 4° C. […] After 20-24 hours of equilibration, the antibody-coated plate was blocked with Blocking Buffer A (MSD) for 30 minutes at room temperature and washed with wash buffer (PBS, 0.1% BSA, 0.05% Tween-20) before adding the equilibrated antibody-antigen complexes to the plate for exactly 2.5 minutes. […] After washing with wash buffer, plates were read in MSD read buffer (MSD) using the MESO QuickPlex SQ 120 (MSD). […]"}, "[2]": {"target": "T2, recombinant human LRRC33-proTGFβ1 complex (human, UniProt P01137 30-390; Q86YC3 19-650)", "T2 construct": "also called hLRRC33-proTGFβ1; hLRRC33", "T2 sequence (P01137 30-390 limits assumed, chain 1 of 2)": "as the sequence (P01137 30-390, chain 1 of 2) above", "T2 sequence (Q86YC3 other isoform, or with tags, fused parts or gaps limits assumed, chain 2 of 2)": "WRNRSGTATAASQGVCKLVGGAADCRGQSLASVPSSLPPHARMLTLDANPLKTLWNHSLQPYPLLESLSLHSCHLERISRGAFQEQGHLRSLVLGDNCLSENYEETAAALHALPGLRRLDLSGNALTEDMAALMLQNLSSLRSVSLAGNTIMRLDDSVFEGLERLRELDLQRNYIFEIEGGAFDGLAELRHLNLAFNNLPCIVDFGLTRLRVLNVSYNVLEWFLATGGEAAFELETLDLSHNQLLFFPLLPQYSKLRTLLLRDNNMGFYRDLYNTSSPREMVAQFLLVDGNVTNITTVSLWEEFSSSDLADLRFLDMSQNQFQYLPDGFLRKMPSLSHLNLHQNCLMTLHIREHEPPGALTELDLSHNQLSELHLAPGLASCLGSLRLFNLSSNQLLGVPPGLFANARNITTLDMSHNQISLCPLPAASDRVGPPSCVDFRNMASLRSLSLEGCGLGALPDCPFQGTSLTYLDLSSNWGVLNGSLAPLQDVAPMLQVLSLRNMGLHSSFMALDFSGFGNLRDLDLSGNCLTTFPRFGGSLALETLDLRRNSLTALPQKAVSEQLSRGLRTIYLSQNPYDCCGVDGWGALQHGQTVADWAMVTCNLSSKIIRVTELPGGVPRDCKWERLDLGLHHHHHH", "experiment": "MSD-SET (solution equilibrium titration), % free antigen against Ab6 concentration", "procedure": "as §1, §2"}, "LTBP:proTGFβ1": {"target": "LTBP:proTGFβ1 (human)", "experiment": "cell-based or functional assay"}}}
{"binder": "Ab6 (antibody, V domains shown) VH: EVQLVESGGGLVQPGGSLRLSCTASGFTFSSFSMDWVRQAPGKGLEWVSYISPSADTIYYADSVKGRFTISRDNAKNTLYLQMNSLRAEDTAVYYCARGVLDYGDMLMPWGQGTLVTVSS VL: DIQMTQSPSSLSASVGDRVTITCQASQDITNYLNWYQQKPGKAPKLLIYDASNLETGVPSRFSGSGSGTDFTFTISSLQPEDIATYYCQQADNHPPWTFGGGTKVEIKR", "values": [{"measurement": "IC50 (read off the curve)", "setting": "[1]", "result": "~0.03", "unit": "nM"}, {"measurement": "IC50 (read off the curve)", "setting": "[2]", "result": "~0.06", "unit": "nM"}, {"measurement": "IC50 (read off the curve)", "setting": "LTBP:proTGFβ1", "result": "~1", "unit": "nM"}]}
